[ ]: non-standard residue; d: D form.
Target: T1, (7× His)-PSD-95-PDZ2 wild type (UniProt P78352 160-246)
T1 construct: domain: PDZ2; recombinant from E. coli; also called PSD-95-PDZ2 WT; not shown: 7x His tag
Assay: FP competition

T1 sequence (P78352 160-246): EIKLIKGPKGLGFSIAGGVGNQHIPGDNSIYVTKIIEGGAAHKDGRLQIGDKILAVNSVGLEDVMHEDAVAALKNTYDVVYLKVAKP

Row | Binder | Ki [nM] | Relative Ki (Ki mut/Ki WT)
1 | cyclo(THLETTFTGGGTPKTIRVTQ[dP]GQ) (SMILES CC[C@H](C)[C@@H]1NC(=O)[C@H]([C@@H](C)O)NC(=O)[C@H](CCCCN)NC(=O)[C@@H]2CCCN2C(=O)[C@H]([C@@H](C)O)NC(=O)CNC(=O)CNC(=O)CNC(=O)[C@H]([C@@H](C)O)NC(=O)[C@H](Cc2ccccc2)NC(=O)[C@H]([C@@H](C)O)NC(=O)[C@H]([C@@H](C)O)NC(=O)[C@H](CCC(=O)O)NC(=O)[C@H](CC(C)C)NC(=O)[C@H](Cc2c[nH]cn2)NC(=O)[C@H]([C@@H](C)O)NC(=O)[C@H](CCC(N)=O)NC(=O)CNC(=O)[C@H]2CCCN2C(=O)[C@H](CCC(N)=O)NC(=O)[C@H]([C@@H](C)O)NC(=O)[C@H](C(C)C)NC(=O)[C@H](CCCNC(=N)N)NC1=O) [cyclic nNOS β-hairpin peptide D114G] | 2590 | 1.73
2 | cyclo(TELETTFTGDGTPKTIRVTQ[dP]GQ) (SMILES CC[C@H](C)[C@@H]1NC(=O)[C@H]([C@@H](C)O)NC(=O)[C@H](CCCCN)NC(=O)[C@@H]2CCCN2C(=O)[C@H]([C@@H](C)O)NC(=O)CNC(=O)[C@H](CC(=O)O)NC(=O)CNC(=O)[C@H]([C@@H](C)O)NC(=O)[C@H](Cc2ccccc2)NC(=O)[C@H]([C@@H](C)O)NC(=O)[C@H]([C@@H](C)O)NC(=O)[C@H](CCC(=O)O)NC(=O)[C@H](CC(C)C)NC(=O)[C@H](CCC(=O)O)NC(=O)[C@H]([C@@H](C)O)NC(=O)[C@H](CCC(N)=O)NC(=O)CNC(=O)[C@H]2CCCN2C(=O)[C@H](CCC(N)=O)NC(=O)[C@H]([C@@H](C)O)NC(=O)[C@H](C(C)C)NC(=O)[C@H](CCCNC(=N)N)NC1=O) [cyclic nNOS β-hairpin peptide H106E] | 6190 | 4.13
3 | cyclo(THLETTVTGDGTPKTIRVTQ[dP]GQ) (SMILES CC[C@H](C)[C@@H]1NC(=O)[C@H]([C@@H](C)O)NC(=O)[C@H](CCCCN)NC(=O)[C@@H]2CCCN2C(=O)[C@H]([C@@H](C)O)NC(=O)CNC(=O)[C@H](CC(=O)O)NC(=O)CNC(=O)[C@H]([C@@H](C)O)NC(=O)[C@H](C(C)C)NC(=O)[C@H]([C@@H](C)O)NC(=O)[C@H]([C@@H](C)O)NC(=O)[C@H](CCC(=O)O)NC(=O)[C@H](CC(C)C)NC(=O)[C@H](Cc2c[nH]cn2)NC(=O)[C@H]([C@@H](C)O)NC(=O)[C@H](CCC(N)=O)NC(=O)CNC(=O)[C@H]2CCCN2C(=O)[C@H](CCC(N)=O)NC(=O)[C@H]([C@@H](C)O)NC(=O)[C@H](C(C)C)NC(=O)[C@H](CCCNC(=N)N)NC1=O) [cyclic nNOS β-hairpin peptide F111V] | 77400 | 51.6
4 | cyclo(THLETTFTGPGTPKTIRVTQ[dP]GQ) (SMILES CC[C@H](C)[C@@H]1NC(=O)[C@H]([C@@H](C)O)NC(=O)[C@H](CCCCN)NC(=O)[C@@H]2CCCN2C(=O)[C@H]([C@@H](C)O)NC(=O)CNC(=O)[C@@H]2CCCN2C(=O)CNC(=O)[C@H]([C@@H](C)O)NC(=O)[C@H](Cc2ccccc2)NC(=O)[C@H]([C@@H](C)O)NC(=O)[C@H]([C@@H](C)O)NC(=O)[C@H](CCC(=O)O)NC(=O)[C@H](CC(C)C)NC(=O)[C@H](Cc2c[nH]cn2)NC(=O)[C@H]([C@@H](C)O)NC(=O)[C@H](CCC(N)=O)NC(=O)CNC(=O)[C@H]2CCCN2C(=O)[C@H](CCC(N)=O)NC(=O)[C@H]([C@@H](C)O)NC(=O)[C@H](C(C)C)NC(=O)[C@H](CCCNC(=N)N)NC1=O) [cyclic nNOS β-hairpin peptide D114P] | 2400 | 1.6
5 | cyclo(THLETTFTGKGTPKTIRVTQ[dP]GQ) (SMILES CC[C@H](C)[C@@H]1NC(=O)[C@H]([C@@H](C)O)NC(=O)[C@H](CCCCN)NC(=O)[C@@H]2CCCN2C(=O)[C@H]([C@@H](C)O)NC(=O)CNC(=O)[C@H](CCCCN)NC(=O)CNC(=O)[C@H]([C@@H](C)O)NC(=O)[C@H](Cc2ccccc2)NC(=O)[C@H]([C@@H](C)O)NC(=O)[C@H]([C@@H](C)O)NC(=O)[C@H](CCC(=O)O)NC(=O)[C@H](CC(C)C)NC(=O)[C@H](Cc2c[nH]cn2)NC(=O)[C@H]([C@@H](C)O)NC(=O)[C@H](CCC(N)=O)NC(=O)CNC(=O)[C@H]2CCCN2C(=O)[C@H](CCC(N)=O)NC(=O)[C@H]([C@@H](C)O)NC(=O)[C@H](C(C)C)NC(=O)[C@H](CCCNC(=N)N)NC1=O) [cyclic nNOS β-hairpin peptide D114K] | 2870 | 1.91

Binders with a lower Ki, results first:

Row | Ki [nM] | Relative Ki (Ki mut/Ki WT) | Binder
6 | 1600 | 1.07 | cyclo(THLETTFTGDGTPKTYRVTQ[dP]GQ) (SMILES CC(C)C[C@@H]1NC(=O)[C@H](Cc2c[nH]cn2)NC(=O)[C@H]([C@@H](C)O)NC(=O)[C@H](CCC(N)=O)NC(=O)CNC(=O)[C@H]2CCCN2C(=O)[C@H](CCC(N)=O)NC(=O)[C@H]([C@@H](C)O)NC(=O)[C@H](C(C)C)NC(=O)[C@H](CCCNC(=N)N)NC(=O)[C@H](Cc2ccc(O)cc2)NC(=O)[C@H]([C@@H](C)O)NC(=O)[C@H](CCCCN)NC(=O)[C@@H]2CCCN2C(=O)[C@H]([C@@H](C)O)NC(=O)CNC(=O)[C@H](CC(=O)O)NC(=O)CNC(=O)[C@H]([C@@H](C)O)NC(=O)[C@H](Cc2ccccc2)NC(=O)[C@H]([C@@H](C)O)NC(=O)[C@H]([C@@H](C)O)NC(=O)[C@H](CCC(=O)O)NC1=O) [cyclic nNOS β-hairpin peptide I120Y]
7 | 990 | 0.66 | cyclo(THLETTFTGRGTPKTIRVTQ[dP]GQ) (SMILES CC[C@H](C)[C@@H]1NC(=O)[C@H]([C@@H](C)O)NC(=O)[C@H](CCCCN)NC(=O)[C@@H]2CCCN2C(=O)[C@H]([C@@H](C)O)NC(=O)CNC(=O)[C@H](CCCNC(=N)N)NC(=O)CNC(=O)[C@H]([C@@H](C)O)NC(=O)[C@H](Cc2ccccc2)NC(=O)[C@H]([C@@H](C)O)NC(=O)[C@H]([C@@H](C)O)NC(=O)[C@H](CCC(=O)O)NC(=O)[C@H](CC(C)C)NC(=O)[C@H](Cc2c[nH]cn2)NC(=O)[C@H]([C@@H](C)O)NC(=O)[C@H](CCC(N)=O)NC(=O)CNC(=O)[C@H]2CCCN2C(=O)[C@H](CCC(N)=O)NC(=O)[C@H]([C@@H](C)O)NC(=O)[C@H](C(C)C)NC(=O)[C@H](CCCNC(=N)N)NC1=O) [cyclic nNOS β-hairpin peptide D114R]
8 | 750 | 0.5 | cyclo(THLETTFTGDRTPKTIRVTQ[dP]GQ) (SMILES CC[C@H](C)[C@@H]1NC(=O)[C@H]([C@@H](C)O)NC(=O)[C@H](CCCCN)NC(=O)[C@@H]2CCCN2C(=O)[C@H]([C@@H](C)O)NC(=O)[C@H](CCCNC(=N)N)NC(=O)[C@H](CC(=O)O)NC(=O)CNC(=O)[C@H]([C@@H](C)O)NC(=O)[C@H](Cc2ccccc2)NC(=O)[C@H]([C@@H](C)O)NC(=O)[C@H]([C@@H](C)O)NC(=O)[C@H](CCC(=O)O)NC(=O)[C@H](CC(C)C)NC(=O)[C@H](Cc2c[nH]cn2)NC(=O)[C@H]([C@@H](C)O)NC(=O)[C@H](CCC(N)=O)NC(=O)CNC(=O)[C@H]2CCCN2C(=O)[C@H](CCC(N)=O)NC(=O)[C@H]([C@@H](C)O)NC(=O)[C@H](C(C)C)NC(=O)[C@H](CCCNC(=N)N)NC1=O) [cyclic nNOS β-hairpin peptide G115R]
9 | 1190 | 0.79 | cyclo(TFLETTFTGDGTPKTIRVTQ[dP]GQ) (SMILES CC[C@H](C)[C@@H]1NC(=O)[C@H]([C@@H](C)O)NC(=O)[C@H](CCCCN)NC(=O)[C@@H]2CCCN2C(=O)[C@H]([C@@H](C)O)NC(=O)CNC(=O)[C@H](CC(=O)O)NC(=O)CNC(=O)[C@H]([C@@H](C)O)NC(=O)[C@H](Cc2ccccc2)NC(=O)[C@H]([C@@H](C)O)NC(=O)[C@H]([C@@H](C)O)NC(=O)[C@H](CCC(=O)O)NC(=O)[C@H](CC(C)C)NC(=O)[C@H](Cc2ccccc2)NC(=O)[C@H]([C@@H](C)O)NC(=O)[C@H](CCC(N)=O)NC(=O)CNC(=O)[C@H]2CCCN2C(=O)[C@H](CCC(N)=O)NC(=O)[C@H]([C@@H](C)O)NC(=O)[C@H](C(C)C)NC(=O)[C@H](CCCNC(=N)N)NC1=O) [cyclic nNOS β-hairpin peptide H106F]
10 | 1760 | 1.17 | cyclo(THLETTFTGDGTPKTRRVTQ[dP]GQ) (SMILES CC(C)C[C@@H]1NC(=O)[C@H](Cc2c[nH]cn2)NC(=O)[C@H]([C@@H](C)O)NC(=O)[C@H](CCC(N)=O)NC(=O)CNC(=O)[C@H]2CCCN2C(=O)[C@H](CCC(N)=O)NC(=O)[C@H]([C@@H](C)O)NC(=O)[C@H](C(C)C)NC(=O)[C@H](CCCNC(=N)N)NC(=O)[C@H](CCCNC(=N)N)NC(=O)[C@H]([C@@H](C)O)NC(=O)[C@H](CCCCN)NC(=O)[C@@H]2CCCN2C(=O)[C@H]([C@@H](C)O)NC(=O)CNC(=O)[C@H](CC(=O)O)NC(=O)CNC(=O)[C@H]([C@@H](C)O)NC(=O)[C@H](Cc2ccccc2)NC(=O)[C@H]([C@@H](C)O)NC(=O)[C@H]([C@@H](C)O)NC(=O)[C@H](CCC(=O)O)NC1=O) [cyclic nNOS β-hairpin peptide I120R]
11 | 1180 | 0.79 | cyclo(TYLETTFTGDGTPKTIRVTQ[dP]GQ) (SMILES CC[C@H](C)[C@@H]1NC(=O)[C@H]([C@@H](C)O)NC(=O)[C@H](CCCCN)NC(=O)[C@@H]2CCCN2C(=O)[C@H]([C@@H](C)O)NC(=O)CNC(=O)[C@H](CC(=O)O)NC(=O)CNC(=O)[C@H]([C@@H](C)O)NC(=O)[C@H](Cc2ccccc2)NC(=O)[C@H]([C@@H](C)O)NC(=O)[C@H]([C@@H](C)O)NC(=O)[C@H](CCC(=O)O)NC(=O)[C@H](CC(C)C)NC(=O)[C@H](Cc2ccc(O)cc2)NC(=O)[C@H]([C@@H](C)O)NC(=O)[C@H](CCC(N)=O)NC(=O)CNC(=O)[C@H]2CCCN2C(=O)[C@H](CCC(N)=O)NC(=O)[C@H]([C@@H](C)O)NC(=O)[C@H](C(C)C)NC(=O)[C@H](CCCNC(=N)N)NC1=O) [cyclic nNOS β-hairpin peptide H106Y]

— patent US20230220021A1 (UNIVERSITY OF COPENHAGEN, published 2023)
